Source: patent US20250025567A1 (Astellas, published 2025)

T1: human CLDN6 (Claudin 6) (human, UniProt P56747 1-220)
T1 construct: whole, on cells; Target presented on NUGC-3 cells that express CLDN6; also called hCLDN6
T1 sequence (looked up): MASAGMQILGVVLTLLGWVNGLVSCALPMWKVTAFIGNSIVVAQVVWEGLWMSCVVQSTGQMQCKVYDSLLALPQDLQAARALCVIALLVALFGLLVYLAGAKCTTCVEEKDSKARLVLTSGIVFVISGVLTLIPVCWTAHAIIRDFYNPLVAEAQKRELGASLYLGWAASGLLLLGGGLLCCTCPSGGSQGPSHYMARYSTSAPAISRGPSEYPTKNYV


Molecular target: T1, human CLDN6 (Claudin 6)
Assay: flow cytometry on NUGC-3 cells expressing CLDN6, antibody 1 ng/mL to 25 µg/mL, PE anti-human IgG detection, gMFI
Method: The cells of human gastric cancer cell line NUGC-3 (JCRB cell bank) expressing CLDN6 were suspended with PBS (Wako, #045-29795) containing 5% FBS so as to have a concentration of 1×10⁶ cells/mL. The suspension was seeded (added) in the wells of a 96-well V-bottom microplate at a rate of 100 μL/well. After centrifugation, the supernatant was removed. AbM: antibody comprising a heavy chain, aCLDN6-VH—CH₁—CH₂—CH₃ and a light chain, aCLDN6-VL-CL, disclosed in International Publication No. WO2022/058298. Ab0, Ab1 and Ab2 were suspended with 5% FBS-containing PBS such that the concentrations fall in the range of 1 ng/mL to 25 μg/mL (12 dilution series were prepared by serial dilution at a 2.5-fold dilution rate from 25 μg/mL to 1 ng/mL). The suspensions were added at a rate of 100 μL/well and allowed to stand still at 4° C. for one hour. […] A histogram of PE (phycoerythrin) fluorescence intensity of viable cell fractions was prepared and geometric mean fluorescence intensity (gMFI) was calculated. gMFI values were plotted to make a graph by GraphPad Prism (company: GraphPad Software). […]

binding result | Binder
binds | humanized anti-CLDN6 antibody Ab1 (antibody, human IgG1, kappa, V domains shown, Humanized from mouse anti-CLDN6 antibody GT512muMAB 64A or 61D (WO 2011/057788), expressed in ExpiCHO-S cells; Tested as the naked antibody) VH: QVQLVESGGGVVQPGGSLRLSCKASGYSFTGYTMNWVRQAPGKGLEWVGLINPYNGGTIYNQKFKGRFTLSVDKSKSTAYLQMNSLRAEDTAVYYCARDYGFVLDYWGRGTLVTVSS VL: DIQLTQSPSSLSASVGDRVTITCSASSSVSYLHWFQQKPGKAPKLLVYSTSNLPSGVPSRFSGSGSGTDYTLTISSLQPEDFATYYCQQRSIYPPWTFGQGTKLEIKR
binds | humanized anti-CLDN6 antibody Ab2 (antibody, human IgG1, kappa, V domains shown, Tested as the naked antibody) VH: QVQLVESGGGVVQPGGSLRLSCKASGYSFTGYTMNWVRQAPGKGLEWVGLINPYNGGTIYNQKFKGRFTLSVDKSKSTAYLQMNSLRAEDTAVYYCARDYGYVLDYWGRGTLVTVSS VL: DIQLTQSPSSLSASVGDRVTITCSASSSVSYLHWFQQKPGKAPKLLVYSTSNLPSGVPSRFSGSGSGTDYTLTISSLQPEDFATYYCQQRSIYPPWTFGQGTKLEIKR
